# From paper PMC12866175 (European journal of nuclear medicine and molecular imaging, 2021)
# Columns and labels:
# [1] = system: non-tumor-bearing BALB/c mice; assay: Toxicity, single intravenous injection, 5 months; format: in vivo
# [2] = set-up: species or system BALB/c mice; details: mouse, in vivo
smiles,measurement,setting,value
"C[C@@H](O)[C@H](NC(=O)[C@@H]1CSSC[C@H](NC(=O)[C@@H](Cc2ccccc2)NC(=O)CN2CCN(CC(=O)O)CCN(CC(=O)O)CCN(CC(=O)O)CC2)C(=O)N[C@@H](Cc2ccc(O)cc2)C(=O)N[C@H](Cc2c[nH]c3ccccc23)C(=O)N[C@@H](CCCCN)C(=O)N[C@@H]([C@@H](C)O)C(=O)N1)C(=O)O [[^225Ac]Ac-DOTA-TATE, metal not drawn]",ALKP among the cohorts,"[1]; mouse, in vivo",No significant differences
same,ALT among the cohorts,"[1]; mouse, in vivo",No significant differences
same,AST among the cohorts,"[1]; mouse, in vivo",No significant differences
same,Blood BUN,"[1]; mouse, in vivo",in the normal range
same,Blood creatinine,"[1]; mouse, in vivo",in the normal range
same,acute kidney damage by pathology,"[1]; mouse, in vivo",no acute kidney damage
same,damage in the liver or other tissues by pathology,"[1]; mouse, in vivo",no treatment related damage
same,survival,[1]; to 5 months p.i.,all animals survived
same,clearance of activity from the tissues,[2],largely cleared
